# Results from patent US20230218738A1 (Pfizer, published 2023).
# T1: RSV F protein mutant pXCS738 (RSV A2, UniProt P03420 26-109)
# T1 chain 1: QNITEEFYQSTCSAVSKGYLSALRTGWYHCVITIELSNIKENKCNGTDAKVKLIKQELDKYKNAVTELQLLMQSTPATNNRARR
# T1 chain 2: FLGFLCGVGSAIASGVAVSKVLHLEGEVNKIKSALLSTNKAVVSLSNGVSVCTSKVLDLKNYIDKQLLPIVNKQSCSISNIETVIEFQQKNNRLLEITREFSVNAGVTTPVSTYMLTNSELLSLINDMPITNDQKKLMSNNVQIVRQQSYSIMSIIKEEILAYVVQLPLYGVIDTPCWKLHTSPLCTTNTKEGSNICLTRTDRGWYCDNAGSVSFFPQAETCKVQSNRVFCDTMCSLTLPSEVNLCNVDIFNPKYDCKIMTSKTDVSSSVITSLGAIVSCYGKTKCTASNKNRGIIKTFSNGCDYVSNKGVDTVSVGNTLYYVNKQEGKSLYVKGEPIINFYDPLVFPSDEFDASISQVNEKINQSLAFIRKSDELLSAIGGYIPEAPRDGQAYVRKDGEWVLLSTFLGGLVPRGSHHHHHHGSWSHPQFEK
# T2: RSV F protein mutant pXCS888 (RSV A2, UniProt P03420 26-109)
# T2 chain 1: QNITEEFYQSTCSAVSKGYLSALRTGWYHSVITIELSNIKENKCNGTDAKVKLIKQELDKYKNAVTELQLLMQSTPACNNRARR
# T2 chain 2: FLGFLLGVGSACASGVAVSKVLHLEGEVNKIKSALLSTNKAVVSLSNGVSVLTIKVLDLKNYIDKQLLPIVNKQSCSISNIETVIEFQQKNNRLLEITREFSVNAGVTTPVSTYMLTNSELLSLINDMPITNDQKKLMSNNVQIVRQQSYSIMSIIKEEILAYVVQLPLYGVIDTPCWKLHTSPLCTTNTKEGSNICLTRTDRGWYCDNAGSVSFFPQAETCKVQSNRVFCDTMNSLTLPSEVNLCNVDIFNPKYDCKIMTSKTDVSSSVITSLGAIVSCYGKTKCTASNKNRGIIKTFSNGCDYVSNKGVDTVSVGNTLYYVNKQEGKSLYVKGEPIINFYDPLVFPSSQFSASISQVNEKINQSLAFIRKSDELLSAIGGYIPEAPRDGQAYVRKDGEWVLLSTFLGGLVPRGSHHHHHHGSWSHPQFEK
# T3: RSV F protein mutant pXCS852 (RSV A2, UniProt P03420 26-109)
# T3 chain 1: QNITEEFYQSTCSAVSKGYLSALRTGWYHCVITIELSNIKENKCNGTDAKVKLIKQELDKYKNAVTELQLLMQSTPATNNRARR
# T3 chain 2: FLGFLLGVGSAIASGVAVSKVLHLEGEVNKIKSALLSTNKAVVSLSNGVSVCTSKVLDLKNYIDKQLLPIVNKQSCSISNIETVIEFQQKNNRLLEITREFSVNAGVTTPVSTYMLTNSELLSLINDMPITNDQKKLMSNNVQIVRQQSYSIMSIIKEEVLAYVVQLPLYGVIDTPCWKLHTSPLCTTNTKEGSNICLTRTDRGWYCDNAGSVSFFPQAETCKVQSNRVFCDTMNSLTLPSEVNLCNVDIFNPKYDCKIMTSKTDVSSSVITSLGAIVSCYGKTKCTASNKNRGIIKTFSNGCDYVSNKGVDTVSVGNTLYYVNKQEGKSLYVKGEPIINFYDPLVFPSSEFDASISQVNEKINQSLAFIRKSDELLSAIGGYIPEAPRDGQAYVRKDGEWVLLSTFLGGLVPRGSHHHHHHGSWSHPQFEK
# T4: RSV F protein mutant pXCS882 (RSV A2, UniProt P03420 26-109)
# T4 chain 1: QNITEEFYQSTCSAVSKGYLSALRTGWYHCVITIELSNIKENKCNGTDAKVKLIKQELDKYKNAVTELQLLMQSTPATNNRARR
# T4 chain 2: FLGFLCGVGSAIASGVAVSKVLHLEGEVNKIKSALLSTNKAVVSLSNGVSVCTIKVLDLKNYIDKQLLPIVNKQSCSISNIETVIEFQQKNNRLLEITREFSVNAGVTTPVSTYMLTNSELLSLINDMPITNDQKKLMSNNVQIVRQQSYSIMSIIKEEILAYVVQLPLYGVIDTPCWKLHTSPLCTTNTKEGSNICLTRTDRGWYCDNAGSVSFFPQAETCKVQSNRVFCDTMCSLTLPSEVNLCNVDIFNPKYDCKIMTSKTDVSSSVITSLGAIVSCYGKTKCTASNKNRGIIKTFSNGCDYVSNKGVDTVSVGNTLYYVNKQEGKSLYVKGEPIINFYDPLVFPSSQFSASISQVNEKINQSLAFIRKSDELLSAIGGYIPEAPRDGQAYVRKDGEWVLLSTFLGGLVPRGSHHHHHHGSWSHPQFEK
# T5: RSV F protein mutant pXCS830 (RSV A2, UniProt P03420 26-109)
# T5 chain 1: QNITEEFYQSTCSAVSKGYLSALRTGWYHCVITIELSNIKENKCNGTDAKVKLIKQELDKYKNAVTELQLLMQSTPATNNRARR
# T5 chain 2: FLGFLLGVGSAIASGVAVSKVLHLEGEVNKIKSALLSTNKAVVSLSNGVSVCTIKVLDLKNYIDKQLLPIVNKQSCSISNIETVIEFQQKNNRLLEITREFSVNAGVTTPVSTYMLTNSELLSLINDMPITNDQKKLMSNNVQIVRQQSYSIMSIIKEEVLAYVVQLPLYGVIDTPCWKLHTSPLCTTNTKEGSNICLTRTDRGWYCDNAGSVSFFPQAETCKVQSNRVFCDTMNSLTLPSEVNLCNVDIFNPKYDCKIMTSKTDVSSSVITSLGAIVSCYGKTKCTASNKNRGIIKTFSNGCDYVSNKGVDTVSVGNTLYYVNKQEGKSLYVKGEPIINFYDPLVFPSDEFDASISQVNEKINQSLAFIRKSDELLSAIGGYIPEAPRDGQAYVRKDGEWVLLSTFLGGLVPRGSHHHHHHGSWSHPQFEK
# Columns and labels:
# Test in all cases: BLI (Octet), F on anti-HIS tip, 20 nM mAb
# [1] = target: RSV F protein mutant pXCS884 (RSV A2, UniProt P03420 26-109)
# [2] = target: T1, RSV F protein mutant pXCS738
# [3] = target: RSV F protein mutant pXCS847 (RSV A2, UniProt P03420 26-109)
# [4] = target: T2, RSV F protein mutant pXCS888
# [5] = target: RSV F protein mutant pXCS891 (RSV A2, UniProt P03420 26-109)
# [6] = target: T3, RSV F protein mutant pXCS852
# [7] = target: RSV F protein mutant pXCS779 (RSV A2, UniProt P03420 26-109)
# [8] = target: T4, RSV F protein mutant pXCS882
# [9] = target: T5, RSV F protein mutant pXCS830
Binder,Response (nm shift) [1],Response (nm shift) [2],Response (nm shift) [3],Response (nm shift) [4],Response (nm shift) [5],Response (nm shift) [6],Response (nm shift) [7],Response (nm shift) [8],Response (nm shift) [9]
"AM22 (antibody, V domains shown) VH: QVQLVQSGAEVKKPGATVKVSCKISGHTLIKLSIHWVRQAPGKGLEWMGGYEGEVDEIFYAQKFQHRLTVIADTATDTVYMELGRLTSDDTAVYFCGTLGVTVTEAGLGIDDYWGQGTLVTVSS VL: EIVLTQSPGTLSLSPGERATLSCRASQIVSRNHLAWYQQKPGQAPRLLIFGASSRATGIPVRFSGSGSGTDFTLTINGLAPEDFAVYYCLSSDSSIFTFGPGTKVDFK",0.323 nm,0.273 nm,0.484 nm,0.434 nm,0.461 nm,0.565 nm,0.125 nm,0.219 nm,0.465 nm
"MPE8 (antibody, V domains shown, also called MPEG) VH: EVQLVESGGGLVKPGGSLRLSCAASGFTFSSYSMNWVRQAPGKGLEWVSSISASSSYSDYADSAKGRFTISRDNAKTSLFLQMNSLRAEDTAIYFCARARATGYSSITPYFDIWGQGTLVTVSS VL: QSVVTQTPSVSGAPGQRVTISCTGSSSNIGAGYDVHWYQQLPGTAPKLLIYDNNNRPSGVPDRFSASKSGTSASLAITGLQAEDEADYYCQSYDRNLSGVFGTGTKVTVL",0.784 nm,0.741 nm,0.871 nm,0.878 nm,0.92 nm,1.13 nm,0.232 nm,0.691 nm,0.923 nm
